Results on one molecule are retold here after patent US20260103529A1, “Amino Acid Sequences Directed Against the Melanocortin 4 Receptor and Polypeptides Comprising the Same for the Treatment of MC4R-Related Diseases and Disorders” (Confo Therapeutics N.V., priority 2022, published 2026).

The target of this experiment is MC4R of the CHO stable cell line used for radioligand displacement (Table 1A) (UniProt P32245). Put plainly: radioligand displacement, CHO stable cell line, n = 2; radioligand not named. For orientation: Displacement assays read how much labelled ligand stays bound in the presence of the test substance.

B1: pN0162 (VHH)
VHH: QVQLVESGGGLVQPGGSLRLSCAASGSAFSLNVMGWYRQTPGNQRALVAEITKDGSTNYADSAKGRFTISRDNAKNTVHLQMDSLKPEDTAVYYCKARTGRIVRPLDYWGQGTQVTVSS
In the case of B1, the Radioligand displacement (IC50 or Ki not stated) was 6.48 nM.
